Measurements reported in publication PMC8187647, “Low chorionic villous succinate accumulation associates with recurrent spontaneous abortion risk” (Nature Communications, 2021).

Tests used:
SDHA = biological target: T1, SDHA (Homo sapiens, UniProt P31040); assay: DARTS (Pronase proteolysis, western blot); type: binding; details: 1 mM aspirin, 1 h; Pronase 1:2000, room temperature, 30 min
T1 construct: recombinant Flag-tagged SDHA, transient expression in HEK293T, anti-Flag M2 purified

SDHC = biological target: T2, SDHC (Homo sapiens, UniProt Q99643); assay: DARTS (Pronase proteolysis, western blot); type: binding; details: 1 mM aspirin, 1 h; Pronase 1:2000, room temperature, 30 min
T2 construct: recombinant Flag-tagged SDHC, transient expression in HEK293T, anti-Flag M2 purified
T2 sequence (Q99643 30-169): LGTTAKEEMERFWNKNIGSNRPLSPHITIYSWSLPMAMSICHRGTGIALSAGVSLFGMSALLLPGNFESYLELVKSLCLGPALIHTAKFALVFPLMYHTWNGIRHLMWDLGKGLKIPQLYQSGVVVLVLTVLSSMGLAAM

MBD1 = biological target: T3, MBD1 (UniProt Q9UIS9 1-605); assay: EMSA; EMSA Kit (Invitrogen), buffer, salt and pH not stated; 15 °C, 30 min; 6% native polyacrylamide gel; details: protein: recombinant; tags: His6 (pET22b)
T3 sequence: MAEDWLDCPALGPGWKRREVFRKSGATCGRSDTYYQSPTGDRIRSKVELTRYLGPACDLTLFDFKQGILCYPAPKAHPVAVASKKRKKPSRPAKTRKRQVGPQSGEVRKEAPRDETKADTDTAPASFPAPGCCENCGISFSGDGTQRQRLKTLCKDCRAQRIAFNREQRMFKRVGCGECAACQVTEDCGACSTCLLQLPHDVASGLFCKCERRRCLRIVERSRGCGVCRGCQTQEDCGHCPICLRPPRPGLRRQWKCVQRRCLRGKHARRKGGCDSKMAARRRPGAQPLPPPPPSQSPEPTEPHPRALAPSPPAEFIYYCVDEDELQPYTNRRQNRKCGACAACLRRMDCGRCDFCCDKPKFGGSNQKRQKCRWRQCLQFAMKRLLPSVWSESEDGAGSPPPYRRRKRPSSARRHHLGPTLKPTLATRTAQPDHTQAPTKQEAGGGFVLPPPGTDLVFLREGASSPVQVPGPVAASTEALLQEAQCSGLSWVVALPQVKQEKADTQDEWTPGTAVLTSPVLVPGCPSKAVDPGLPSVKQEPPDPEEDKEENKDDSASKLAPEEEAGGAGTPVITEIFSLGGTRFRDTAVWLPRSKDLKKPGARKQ

c-Fos = c-Fos (UniProt P01100 1-380); assay: as above; details: protein: recombinant; tags: His6 (pET22b); chain copies: 2
Chain of c-Fos (P01100 whole entry): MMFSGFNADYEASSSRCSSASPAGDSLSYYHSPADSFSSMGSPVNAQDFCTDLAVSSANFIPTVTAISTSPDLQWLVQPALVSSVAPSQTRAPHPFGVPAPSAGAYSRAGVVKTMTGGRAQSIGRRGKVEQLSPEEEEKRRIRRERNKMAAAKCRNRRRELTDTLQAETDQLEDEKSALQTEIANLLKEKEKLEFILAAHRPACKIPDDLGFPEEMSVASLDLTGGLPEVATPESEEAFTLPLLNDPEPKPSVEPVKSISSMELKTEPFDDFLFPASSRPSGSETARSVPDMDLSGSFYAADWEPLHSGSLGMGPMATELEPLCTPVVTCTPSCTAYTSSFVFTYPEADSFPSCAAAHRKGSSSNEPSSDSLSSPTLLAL

T1 sequence (P31040 43-664): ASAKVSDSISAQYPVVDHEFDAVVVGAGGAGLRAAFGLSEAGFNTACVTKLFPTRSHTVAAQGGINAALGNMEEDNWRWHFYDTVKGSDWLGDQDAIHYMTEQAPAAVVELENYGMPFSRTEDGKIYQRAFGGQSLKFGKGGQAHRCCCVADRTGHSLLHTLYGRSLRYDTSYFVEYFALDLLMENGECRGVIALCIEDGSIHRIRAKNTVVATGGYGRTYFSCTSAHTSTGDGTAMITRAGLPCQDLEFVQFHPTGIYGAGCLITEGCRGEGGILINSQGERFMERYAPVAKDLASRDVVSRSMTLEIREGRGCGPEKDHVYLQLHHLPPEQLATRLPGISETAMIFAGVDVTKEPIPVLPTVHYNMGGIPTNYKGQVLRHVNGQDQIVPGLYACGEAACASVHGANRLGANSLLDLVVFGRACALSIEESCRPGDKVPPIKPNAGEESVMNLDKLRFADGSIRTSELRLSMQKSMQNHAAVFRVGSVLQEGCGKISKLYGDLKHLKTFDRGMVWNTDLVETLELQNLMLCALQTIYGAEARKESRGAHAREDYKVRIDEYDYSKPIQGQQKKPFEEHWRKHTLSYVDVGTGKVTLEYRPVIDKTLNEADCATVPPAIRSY

CC(=O)Oc1ccccc1C(=O)O [aspirin]
DARTS (Pronase proteolysis, western blot) (SDHA): aspirin can specifically bind to SDHA and SDHC, but not SDHB and SDHD
DARTS (Pronase proteolysis, western blot) (SDHC): aspirin can specifically bind to SDHA and SDHC, but not SDHB and SDHD

B1: SDHB promoter -1172/-1165 CpG, methylated (dsDNA)
DNA 1: GGCAAGCTGCACGGTATGCGACAGAAAGGG
DNA 2: CCCTTTCTGTCGCATACCGTGCAGCTTGCC
modifications: 5mC at C12 and C19 of strand 1; methylation of the complement not stated
binding result (MBD1): binds

B2: SDHB promoter c-Fos binding region (dsDNA)
DNA 1: ACAGAAAGGGCTGACTCAAGCCAGTAAGCG
DNA 2: CGCTTACTGGCTTGAGTCAGCCCTTTCTGT
binding result (c-Fos): binds

B3: SDHB promoter -1135 CpG, methylated (dsDNA)
DNA 1: ACTCAAGCCAGTAAGCGTCAGAGATGAATA
DNA 2: TATTCATCTCTGACGCTTACTGGCTTGAGT
modifications: 5mC at C16 of strand 1; methylation of the complement not stated
binding result (MBD1): binds
